Assay results: patent US6998239B1, “Method for identifying a modulator of the binding of CCX CKR polypeptide to a chemokine” (ChemoCentryx, Inc., priority 1999, dated 2006)
“Also recorded” adds a separate entry of the source. One block for each molecule: values may come before it.

How the values were obtained:
CCX CKR [1] = biological target: T1, CCX CKR (Homo sapiens, UniProt Q9NPB9); test: Small molecule screen: inhibition of 125I-ELC binding to HEK293 cells expressing CCX CKR; conditions: for Effect on binding between ELC and CCX CKR: 125I-ELC ~25-100 pM, compounds 1-5 μg/mL, ~3 hours at 4° C., HEK293 Flag-CCX CKR cells; for Type of modulator of CCX CKR function: Table 1, class given beside the label
T1 construct: Full length CCX CKR expression constructs were made in pIRESpuro expression vector; expressed in transfected cells
T1 sequence (Q9NPB9 1-350): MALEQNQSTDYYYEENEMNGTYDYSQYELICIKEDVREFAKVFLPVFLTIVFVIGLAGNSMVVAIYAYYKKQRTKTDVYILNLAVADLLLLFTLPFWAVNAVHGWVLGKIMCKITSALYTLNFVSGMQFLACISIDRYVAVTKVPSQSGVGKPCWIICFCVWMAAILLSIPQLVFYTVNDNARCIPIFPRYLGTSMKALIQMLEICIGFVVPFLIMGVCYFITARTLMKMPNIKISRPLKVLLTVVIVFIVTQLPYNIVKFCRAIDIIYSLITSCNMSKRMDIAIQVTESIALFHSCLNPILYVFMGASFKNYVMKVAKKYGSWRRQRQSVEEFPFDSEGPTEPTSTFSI
Experimental: Source plates of chemical libraries were obtained from commercial vendors and contained individual compounds at 5 mg/mL in DMSO, or in some instances, at 1 mg/mL. From these, multiple compound plates containing 10 compounds in each well were made, and these were diluted in 20% DMSO to a concentration of 50 μg/mL (10 μg/mL for those beginning at 1 mg/mL). An aliquot of 20 μL of each mixture was put into the test plates, which were stored frozen until use.
HEK293 cells stably expressing the M1 flag epitope-tagged CCX CKR (described in Example 3, supra) were cultured in DMEM-10% FBS, and harvested when the concentration was between 0.5-1.0×10^6 cells/mL. The cells were centrifuged and resuspended in assay buffer (20 mM HEPES, 80 mM NaCl, 1 mM CaCl2, 5 mM MgCl2, and with 0.2% bovine serum albumin, pH 7.4) to a concentration of 5.6×10^6 cells/mL.
Using a Multi-Probe automated system, 0.09 mL of cells was added to each well of the assay test plates containing the compounds, followed by 0.09 mL of ^125I-MIPβ3/ELC (from Amersham Pharmacia Biotech) diluted in assay buffer (final concentration ˜25-100 pM, with ˜50,000 cpm per well). The final concentration of the compounds was 1-5 μg/mL each. The plates were sealed and incubated for approximately 3 hours at 4° C. on a shaker platform. The assay plates were harvested using Packard GP/B filter plates, pre-soaked in PEI solution, on the vacuum harvest apparatus. Scintillation fluid (50 μL) was added to each of the wells, the plates were sealed and counted in a Top Count scintillation counter. Control wells contained either diluent only (for total counts) or excess ELC (1 μg/mL, for non-specific binding) and were used to calculate the percent of total inhibition of ELC binding for each set of compounds.

CCX CKR [2] = biological target: T1, CCX CKR; test: Adhesion of HEK293-CCX CKR cells to immobilized ELC-stalkokine and competition by soluble chemokines; type: cell-based; conditions: 5-10 ug/ml soluble recombinant chemokine as competitor
Description: “Stalkokine” technology was used to :identify the chemokines bound by the CCX CKR. Briefly, immobilized native chemokines alone are incapable of capturing cells bearing cognate receptors (Imai et al., 1997, Cell 91:521). We have developed non-native chemokine structures, stalkokines, comprising chemokine moieties engineered as N-terminal attachments to extended modified mucins (Bazan et al., 1997, Nature 385:640). In one embodiment, stalkokines, harvested in the supernatants of HEK293 cells after transient transfection, are anchored to solid substrates via antibodies against carrier domains (e.g. poly-His epitopes) engineered to the carboxyl terminus, leaving the chemokine domain free to interact with candidate orphan receptors.
To determine ligand binding to CCX CKR, HEK293-CCX CKR cells were used to interrogate chemokine ‘stalkokines’ (SK), i.e., molecules in which discrete chemokine domains were engineered to be tethered to the end of an extended stalk structure. […] In all cases, nonadherent cells were removed by washing in PBS; remaining adherent cells were fixed with 1% glutaraldehyde, photoimaged and counted. […]

CCX CKR [3] = biological target: T1, CCX CKR; test: Homologous competition binding of radiolabeled chemokine on HEK293-CCX CKR cells
Description: Furthermore ELC-SK mediated adhesion was abolished in the presence of soluble native ELC as a competitor (FIG. 3A, top row). […] Moreover, radiolabeled ELC was used in a traditional homologous competition assay in the presence of increasing concentrations of unlabeled ELC. […] Taken together, the stalkokine-based adhesion and radiolabeled ligand binding/homologous competition assays indicate that CCX CKR is a new chemokine receptor that bound a novel compliment of chemokines.

CCX CKR [4] = biological target: T1, CCX CKR; test: Ligand binding fingerprint: displacement of 125I-ELC from CCX CKR stable transfectants by cold chemokines; conditions: cold competitor 200 nM; human and murine ELC, SLC, TECK; comparable with 125I-TECK
Description: In one embodiment, binding is detected as described by Dairaghi et al., 1997, J. Biol. Chem. 272:28206-209 (incorporated by reference in its entirety for all purposes) substituting CCX CKR transfectants for the CCR3 transfectants). In one embodiment, binding is detected using the filter based technique described by Dairaghi et al., 1999, J. Biol. Chem. 274:2156 (incorporated by reference in its entirety for all purposes), e.g., as shown in FIG. 4. Briefly, this technology employs expanded, efficiency-maximized radioligand binding utilizing filtration protocols. […] Filters are washed twice (25 mM HEPES, 500 mM NaCl, 1 mM CaCl25 mM MgCl2, adjusted to pH 7.1) and scintillant (e.g., MicroScint 20; 50 μl) is added to dried filters and counted (e.g., using a Packard Topcount scintillation counter). The competition dose-response curves is analyzed by standard methods to determine IC50 values (e.g., using GraphPad Prism software (San Diego, Calif.)). […]
In order to rapidly and thoroughly define a given chemokine receptor's ligand binding fingerprint, we have established an approach to comprehensively profile chemokine receptors using a large array of purified chemokines and chemokine variants. […] Employing radioligand binding of ^125I-labeled-ELC or ^125I-TECK to CCX CKR stable transfectants, chemokine specificity for the new receptor was determined. […]

CCX CKR [5] = biological target: T1, CCX CKR; test: Radioligand binding competition with Scatchard transformation (binding constants); conditions: for Affinity class of CCX CKR ligands (summary of Examples 4-6): summary statement
Description: In one embodiment, binding is detected as described by Dairaghi et al., 1997, J. Biol. Chem. 272:28206-209 (incorporated by reference in its entirety for all purposes) substituting CCX CKR transfectants for the CCR3 transfectants). In one embodiment, binding is detected using the filter based technique described by Dairaghi et al., 1999, J. Biol. Chem. 274:2156 (incorporated by reference in its entirety for all purposes), e.g., as shown in FIG. 4. Briefly, this technology employs expanded, efficiency-maximized radioligand binding utilizing filtration protocols. In these assays, 1×10^5 CCXCKR-293 HEK cells are incubated with […] (MlP3beta) (final concentration of ˜0.05 nM) in the presence of unlabeled chemokine for 3 h at 4° C. in 25 mM HEPES, 140 mM NaCl, 1 mM CaCl2, 5 mM MgCl2, and 0.2% bovine serum albumin, adjusted to pH 7.1. Reactions were aspirated onto PEI-treated GF/B glass filters using a cell harvester (Packard). Filters are washed twice (25 mM HEPES, 500 mM NaCl, 1 mM CaCl25 mM MgCl2, adjusted to pH 7.1) and scintillant (e.g., MicroScint 20; 50 μl) is added to dried filters and counted (e.g., using a Packard Topcount scintillation counter). The competition dose-response curves is analyzed by standard methods to determine IC50 values (e.g., using GraphPad Prism software (San Diego, Calif.)). Additionally, a Scatchard transformation can be used to estimate the receptor sites per cell (e.g., using WaveMetrics Igor software (Lake Oswego, Oreg.)).
Binding analysis was carried out using efficiency-maximized radioligand binding utilizing filtration protocols designated “Displace Max” (Dairaghi et al., 1999, J Biol. Chem. 274:21569). […]
The binding interactions identified in the primary screen were examined quantitatively by extensive radioligand binding competition to CCX CKR stable transfectants and Scatchard transformation of the displacement data (FIG. 4B). […]

CCX CKR [6] = biological target: T1, CCX CKR; test: Preliminary chemotaxis analysis of CCX CKR transfectants; type: cell-based; conditions: preliminary chemotaxis analyses, not shown
CCX CKR [7] = biological target: T1, CCX CKR; test: Ligand induced internalization of CCX CKR in 293 F-CCR10 cells (FACS, anti-Flag); type: cell-based; conditions: 100 nM chemokine, 37° C., 15 or 45 minutes
Experimental: 293 cells transfected with the Flag-CCX CKR fusion plasmid (i.e., “293 F-CCR10 cells;” see Example 3) were incubated at 37° C. with varying concentrations of chemokines (ELC, SLC, TECK, murine CTACK and MCP4) for 15 or 45 minutes. Following incubation, the cells were washed and fixed with 3% paraformaldehyde for 15 minutes on ice. The cells were stained with anti-Flag M1 antibody, followed by a PE-conjugated anti-mouse secondary antibody. FACS analysis were then carried out to determine surface expression of the receptor.
Results: A reduction in antibody binding in the presence of ligand is an indication of ligand-induced internalization of the receptor.

Molecule: ELC: EBII ligand chemokine, recombinant chemokine from R&D Systems
Effect of soluble chemokine on ELC-SK mediated adhesion of HEK293-CCX CKR cells (CCX CKR [2]): ablation of adhesion; also recorded: abolished
Binding of radiolabeled ELC, homologous competition with unlabeled ELC (CCX CKR [3]): significant binding
Binding to CCX CKR by displacement of 125I-labeled ELC (CCX CKR [4]): bound well
Affinity class of CCX CKR ligands (summary of Examples 4-6) (CCX CKR [5]): high affinity
Migration of CCX CKR transfectants in response to chemokine (CCX CKR [6]): moderate migration
Internalization of the receptor (CCX CKR [7]): Internalization of the receptor was observed

Molecule: BLC: CXC chemokine BLC
Binding to CCX CKR by displacement of 125I-labeled ELC (CCX CKR [4]): lower affinity
Affinity for CCX CKR in multipoint competition, in words (CCX CKR [5]; competition against 125I-ELC): of lesser affinity, also bound well
Affinity class of CCX CKR ligands (summary of Examples 4-6) (CCX CKR [5]): lower affinity

Molecule: MCP4: chemokine used as non-binding control in internalization assay
Internalization of the receptor (CCX CKR [7]): did not cause internalization

Next, values leading:

Effect on binding between ELC and CCX CKR (CCX CKR [1]): enhance binding
Type of modulator of CCX CKR function (CCX CKR [1]): Com- pound III (agonist)
Molecule: CCC(c1nc2ccccc2c(=O)n1C)N(Cc1ccco1)C(=O)Nc1cccc(C(F)(F)F)c1 (centres unmarked) [Compound III]

Effect of soluble chemokine on ELC-SK mediated adhesion of HEK293-CCX CKR cells (CCX CKR [2]): no diminution in adhesion and not
Molecule: MCP-3: soluble chemokine, representative of non-competing chemokines

Effect on binding between ELC and CCX CKR (CCX CKR [1]): inhibit binding
Type of modulator of CCX CKR function (CCX CKR [1]): Com- pound I (antago- nist)
Molecule: CC1CCCCN1CCCN(Cc1ccc(OCc2ccccc2)cc1)C(=O)Nc1ccc(Cl)c(Cl)c1 (centres unmarked) [Compound I]

Effect on binding between ELC and CCX CKR (CCX CKR [1]): inhibit binding
Type of modulator of CCX CKR function (CCX CKR [1]): Com- pound II (antago- nist)
Molecule: CC1CCCCN1CCCN(Cc1ccc(OCc2ccccc2)cc1)C(=O)NC12CCCC3CCC1CC2C3 (centres unmarked) [Compound II]
